What was measured:
[1] = biological target: GST-free tubby-N (tubby N-terminus, 1M-242P) (mouse) (UniProt P50586); assay: phage binding assay
[2] = biological target: GST fusion protein of Tulp1-N (1M-298Q) (mouse) (UniProt Q9Z273); assay: phage binding assay
GST fusion protein of Tulp1-N (1M-298Q) (mouse), sequence (Q9Z273 1-298): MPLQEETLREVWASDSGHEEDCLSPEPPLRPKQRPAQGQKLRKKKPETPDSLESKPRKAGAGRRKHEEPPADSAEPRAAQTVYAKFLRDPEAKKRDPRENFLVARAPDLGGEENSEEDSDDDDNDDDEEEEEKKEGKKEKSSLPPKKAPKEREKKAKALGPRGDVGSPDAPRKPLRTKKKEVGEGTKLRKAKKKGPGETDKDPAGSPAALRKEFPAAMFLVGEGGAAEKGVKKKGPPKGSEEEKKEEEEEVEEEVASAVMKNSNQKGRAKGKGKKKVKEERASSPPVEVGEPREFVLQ

GST-free tubby-N (tubby N-terminus, 1M-242P) (mouse), sequence (P50586 1-242): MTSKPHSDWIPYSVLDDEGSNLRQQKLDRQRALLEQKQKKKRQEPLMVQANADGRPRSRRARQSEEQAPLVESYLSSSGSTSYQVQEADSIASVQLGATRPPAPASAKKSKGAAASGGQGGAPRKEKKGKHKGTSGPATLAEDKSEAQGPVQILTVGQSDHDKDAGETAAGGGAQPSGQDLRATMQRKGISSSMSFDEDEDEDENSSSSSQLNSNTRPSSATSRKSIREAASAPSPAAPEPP
ATP-binding cassette F1 (Abcf1) phage clone, 57K-196G, sequence (Q6P542 whole entry, the tested form may be a part): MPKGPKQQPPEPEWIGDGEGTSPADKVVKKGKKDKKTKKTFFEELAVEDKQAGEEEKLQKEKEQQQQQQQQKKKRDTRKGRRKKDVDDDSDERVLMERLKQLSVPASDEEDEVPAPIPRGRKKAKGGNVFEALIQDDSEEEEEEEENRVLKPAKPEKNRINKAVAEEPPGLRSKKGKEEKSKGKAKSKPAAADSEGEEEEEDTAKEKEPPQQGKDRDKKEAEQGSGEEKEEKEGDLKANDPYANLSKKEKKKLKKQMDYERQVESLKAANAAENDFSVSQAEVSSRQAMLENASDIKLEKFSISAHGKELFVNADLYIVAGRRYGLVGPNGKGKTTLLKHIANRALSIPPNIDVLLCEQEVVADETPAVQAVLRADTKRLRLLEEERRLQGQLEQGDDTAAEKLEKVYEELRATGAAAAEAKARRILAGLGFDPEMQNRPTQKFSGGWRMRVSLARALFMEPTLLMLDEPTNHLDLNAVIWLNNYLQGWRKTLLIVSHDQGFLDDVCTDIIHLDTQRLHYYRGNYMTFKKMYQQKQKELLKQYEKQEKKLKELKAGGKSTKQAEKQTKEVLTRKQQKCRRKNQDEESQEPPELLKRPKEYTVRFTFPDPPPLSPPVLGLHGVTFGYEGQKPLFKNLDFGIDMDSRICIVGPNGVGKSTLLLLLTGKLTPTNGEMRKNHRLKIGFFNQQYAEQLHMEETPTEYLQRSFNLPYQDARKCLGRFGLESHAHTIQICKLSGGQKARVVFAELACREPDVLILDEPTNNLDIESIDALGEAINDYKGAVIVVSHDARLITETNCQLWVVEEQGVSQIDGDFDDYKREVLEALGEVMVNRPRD
Structure specific recognition protein 1 (Ssrp1) phage clone, 486E-619G, sequence (Q08943 2-708): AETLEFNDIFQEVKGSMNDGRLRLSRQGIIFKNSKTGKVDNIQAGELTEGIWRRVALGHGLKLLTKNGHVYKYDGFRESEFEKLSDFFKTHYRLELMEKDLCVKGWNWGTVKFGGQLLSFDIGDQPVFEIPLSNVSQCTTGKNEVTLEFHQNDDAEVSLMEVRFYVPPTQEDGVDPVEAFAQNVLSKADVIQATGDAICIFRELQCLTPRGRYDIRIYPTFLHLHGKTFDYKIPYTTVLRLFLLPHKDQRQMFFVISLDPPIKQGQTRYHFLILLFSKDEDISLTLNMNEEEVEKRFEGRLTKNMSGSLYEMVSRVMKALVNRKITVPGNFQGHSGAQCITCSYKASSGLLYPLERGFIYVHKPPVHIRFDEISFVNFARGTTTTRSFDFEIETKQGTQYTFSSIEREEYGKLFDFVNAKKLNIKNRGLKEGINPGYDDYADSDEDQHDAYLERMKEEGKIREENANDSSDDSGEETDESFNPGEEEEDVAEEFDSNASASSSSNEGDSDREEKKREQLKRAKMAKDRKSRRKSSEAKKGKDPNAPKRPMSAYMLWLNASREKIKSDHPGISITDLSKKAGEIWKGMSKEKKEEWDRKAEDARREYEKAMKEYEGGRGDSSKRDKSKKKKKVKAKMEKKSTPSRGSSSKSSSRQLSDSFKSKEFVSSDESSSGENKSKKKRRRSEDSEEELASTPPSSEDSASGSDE
Zinc finger E-box binding homeobox 1 (Zeb1) phage clone, 903E-1021E, sequence (Q64318 whole entry, the tested form may be a part): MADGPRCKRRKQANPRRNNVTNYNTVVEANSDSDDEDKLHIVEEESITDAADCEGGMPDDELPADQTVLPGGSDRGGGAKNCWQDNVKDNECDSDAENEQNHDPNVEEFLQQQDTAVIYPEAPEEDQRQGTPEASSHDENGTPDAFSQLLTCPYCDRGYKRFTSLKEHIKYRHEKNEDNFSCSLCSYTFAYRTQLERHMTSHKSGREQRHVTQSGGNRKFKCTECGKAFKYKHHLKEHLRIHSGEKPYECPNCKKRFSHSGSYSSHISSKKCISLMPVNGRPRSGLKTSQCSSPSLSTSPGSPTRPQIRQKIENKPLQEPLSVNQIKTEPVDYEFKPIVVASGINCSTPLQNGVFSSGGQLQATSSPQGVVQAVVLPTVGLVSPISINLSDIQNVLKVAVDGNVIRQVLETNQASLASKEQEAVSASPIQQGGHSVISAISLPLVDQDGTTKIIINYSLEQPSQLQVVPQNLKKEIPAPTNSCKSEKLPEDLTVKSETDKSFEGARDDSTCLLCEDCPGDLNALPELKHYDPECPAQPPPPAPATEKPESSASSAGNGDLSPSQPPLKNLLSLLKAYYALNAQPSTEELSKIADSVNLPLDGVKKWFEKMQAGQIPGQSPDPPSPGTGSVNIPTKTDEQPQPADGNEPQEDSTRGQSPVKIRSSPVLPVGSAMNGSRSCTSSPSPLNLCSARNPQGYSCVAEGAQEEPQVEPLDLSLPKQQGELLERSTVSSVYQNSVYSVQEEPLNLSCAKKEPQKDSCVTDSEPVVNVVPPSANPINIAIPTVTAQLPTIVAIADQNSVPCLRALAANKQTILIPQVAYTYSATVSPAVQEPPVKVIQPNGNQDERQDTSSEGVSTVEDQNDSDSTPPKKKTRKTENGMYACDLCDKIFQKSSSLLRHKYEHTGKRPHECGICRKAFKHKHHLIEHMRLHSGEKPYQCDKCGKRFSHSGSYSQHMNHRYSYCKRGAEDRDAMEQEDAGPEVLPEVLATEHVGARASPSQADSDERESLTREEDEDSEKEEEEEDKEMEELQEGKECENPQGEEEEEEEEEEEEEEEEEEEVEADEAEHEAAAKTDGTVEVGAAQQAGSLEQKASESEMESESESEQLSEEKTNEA
High mobility group (Hmg) box 2 (Hmgb2) phage clone, 89K-188E, sequence (P30681 whole entry, the tested form may be a part): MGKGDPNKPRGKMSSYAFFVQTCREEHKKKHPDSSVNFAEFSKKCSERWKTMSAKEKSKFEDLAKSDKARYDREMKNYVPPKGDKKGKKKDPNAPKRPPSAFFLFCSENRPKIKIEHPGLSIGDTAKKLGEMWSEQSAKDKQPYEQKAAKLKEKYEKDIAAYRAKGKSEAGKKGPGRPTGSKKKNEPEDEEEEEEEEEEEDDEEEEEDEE
Hmg. nucleosomal binding domain 1 (Hmgn1) phage clone, 1M-49K, sequence (P18608 2-96): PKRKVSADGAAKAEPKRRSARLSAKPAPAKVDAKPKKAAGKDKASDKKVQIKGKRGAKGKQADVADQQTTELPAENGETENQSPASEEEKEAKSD
Zinc finger protein 609 (Zfp609) phage clone, 1M-183E (domain or fragment), sequence (Q8BZ47 whole entry, the tested form may be a part): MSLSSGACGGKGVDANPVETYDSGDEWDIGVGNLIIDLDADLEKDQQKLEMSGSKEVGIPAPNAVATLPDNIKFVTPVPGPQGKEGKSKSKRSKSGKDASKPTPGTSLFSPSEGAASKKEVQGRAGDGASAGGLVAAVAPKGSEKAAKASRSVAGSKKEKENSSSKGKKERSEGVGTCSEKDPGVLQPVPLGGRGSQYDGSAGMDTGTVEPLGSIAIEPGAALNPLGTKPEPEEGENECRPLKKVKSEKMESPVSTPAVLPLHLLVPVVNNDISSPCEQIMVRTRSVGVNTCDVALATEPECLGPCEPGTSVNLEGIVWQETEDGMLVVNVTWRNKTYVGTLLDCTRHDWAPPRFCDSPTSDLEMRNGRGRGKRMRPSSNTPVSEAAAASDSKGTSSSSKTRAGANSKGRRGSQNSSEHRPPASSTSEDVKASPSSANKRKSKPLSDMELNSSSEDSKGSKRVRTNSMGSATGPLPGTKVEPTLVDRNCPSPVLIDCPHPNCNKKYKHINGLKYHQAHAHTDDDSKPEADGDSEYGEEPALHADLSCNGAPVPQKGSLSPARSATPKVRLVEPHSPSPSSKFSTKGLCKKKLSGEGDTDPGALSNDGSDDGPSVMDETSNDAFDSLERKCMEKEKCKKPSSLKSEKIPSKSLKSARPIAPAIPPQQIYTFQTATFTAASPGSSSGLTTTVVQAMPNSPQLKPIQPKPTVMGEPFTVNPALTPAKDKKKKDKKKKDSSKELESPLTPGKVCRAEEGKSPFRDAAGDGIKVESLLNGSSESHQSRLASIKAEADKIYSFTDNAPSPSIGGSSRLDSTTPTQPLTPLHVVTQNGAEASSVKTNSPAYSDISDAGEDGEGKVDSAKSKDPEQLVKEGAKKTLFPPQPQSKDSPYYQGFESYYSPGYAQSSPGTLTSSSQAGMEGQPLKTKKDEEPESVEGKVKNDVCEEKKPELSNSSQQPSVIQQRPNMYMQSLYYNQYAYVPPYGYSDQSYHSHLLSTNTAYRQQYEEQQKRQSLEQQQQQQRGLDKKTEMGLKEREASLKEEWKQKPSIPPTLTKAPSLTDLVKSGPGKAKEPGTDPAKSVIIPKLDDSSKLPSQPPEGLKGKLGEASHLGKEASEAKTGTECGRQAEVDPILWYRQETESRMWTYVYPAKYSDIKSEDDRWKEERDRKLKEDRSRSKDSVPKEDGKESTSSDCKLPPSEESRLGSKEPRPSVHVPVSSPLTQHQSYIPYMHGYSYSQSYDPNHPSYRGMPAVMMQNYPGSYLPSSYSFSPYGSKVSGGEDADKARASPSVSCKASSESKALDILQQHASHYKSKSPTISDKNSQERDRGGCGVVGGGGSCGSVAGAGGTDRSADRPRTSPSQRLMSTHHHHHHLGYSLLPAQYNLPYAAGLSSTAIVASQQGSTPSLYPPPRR

| Substance | binding specificity, clonal phage vs. control phage [1] | binding specificity, clonal phage vs. control phage [2] |
| --- | --- | --- |
| ATP-binding cassette F1 (Abcf1) phage clone, 57K-196G (from UniProt Q6P542 57-196) (domain or fragment) | 68.2 X | 33.4 X |
| Armadillo repeat containing, X-linked 4 phage clone, 419S-587N (domain or fragment) | 40.1 X |  |
| High mobility group (Hmg) box 2 (Hmgb2) phage clone, 89K-188E (from UniProt P30681 89-188) (domain or fragment) | 312 X | 55.2 X |
| Hmg. box 2-like 1 (Hmgb2l1) phage clone, 170K-305G (domain or fragment) | 29.8 X |  |
| Hmg. nucleosomal binding domain 1 (Hmgn1) phage clone, 1M-49K (from UniProt P18608 1-49) (domain or fragment) | 61.4 X |  |
| Microtubule-associated protein 7 (Mtap7) phage clone, 23A-114R (from UniProt O88735 23-114) (domain or fragment) | 3.5 X |  |
| PC4 and SFRS1 interacting protein 1 (Psip1) phage clone, 152K-219K (from UniProt Q99JF8-1 152-219) (domain or fragment) | 196 X | 24.1 X |
| Structure specific recognition protein 1 (Ssrp1) phage clone, 486E-619G (from UniProt Q08943-1 486-619) (domain or fragment) | 157 X | 39.7 X |
| Zinc finger E-box binding homeobox 1 (Zeb1) phage clone, 903E-1021E (from UniProt Q64318 903-1021) (domain or fragment) | 284 X | 56.7 X |
| Zinc finger protein 609 (Zfp609) phage clone, 1M-183E (domain or fragment) | 53.2 X |  |
